This note sets out measurements from patent US20260167721A1 (ABLEXIS, published 2026).

Test [1] addresses T1, human CD3 (TCR/CD3 complex on the cell surface) (human, UniProt P07766 23-207; P04234 22-171; P09693 23-182).
T1 construct: whole, on cells; Native CD3 on human Pan-T cells or Jurkat wild-type cells; also called CD3 on Pan-T cells; CD3 on Jurkat WT cells
Nature of the test: flow cytometry, Pan-T cells, 1 ug/mL. (A flow cytometer gives signals particle by particle.)

Test [2] deals with T1, human CD3 (TCR/CD3 complex on the cell …). Nature of the test: flow cytometry, Pan-T cells, 10 ug/mL.
For test [3] the target is unchanged. Nature of the test: flow cytometry, Jurkat WT gMFI over Jurkat KO gMFI, 10 ug/mL.
The target is the same in test [4]. As to the kind of experiment: flow cytometry, Jurkat WT cells, 10 ug/mL.
Test [5] shares this target. As to the kind of experiment: flow cytometry, Jurkat WT gMFI over Jurkat KO gMFI, 1 ug/mL.
Test [6] shares this target. As to the kind of experiment: flow cytometry, Jurkat WT cells, 1 ug/mL.

T1 sequence (P07766 23-207, chain 1 of 3): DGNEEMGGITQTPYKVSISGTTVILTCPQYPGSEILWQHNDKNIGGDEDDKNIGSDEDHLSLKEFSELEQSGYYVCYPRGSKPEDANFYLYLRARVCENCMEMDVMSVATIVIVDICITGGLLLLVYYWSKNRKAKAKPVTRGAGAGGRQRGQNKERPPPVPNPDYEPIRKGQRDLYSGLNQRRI
T1 sequence (P04234 22-171, chain 2 of 3): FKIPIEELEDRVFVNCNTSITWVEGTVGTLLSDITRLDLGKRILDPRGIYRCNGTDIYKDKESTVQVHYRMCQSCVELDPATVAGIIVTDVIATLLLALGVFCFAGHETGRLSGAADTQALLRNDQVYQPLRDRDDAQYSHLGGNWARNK
T1 sequence (P09693 23-182, chain 3 of 3): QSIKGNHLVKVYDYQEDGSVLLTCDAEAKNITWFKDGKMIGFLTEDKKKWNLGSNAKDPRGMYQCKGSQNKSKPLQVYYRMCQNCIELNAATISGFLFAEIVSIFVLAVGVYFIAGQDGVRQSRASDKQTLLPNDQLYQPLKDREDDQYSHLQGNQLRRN

B1: CD3 × CD33-BspAb120 (bispecific antibody)
chain 1: NFMLTQPHSVSESPGKTVAISCTRSSGSIASNYVQWYQQRPGSSPTAVIYEDNQRPSGVPDRFSGSIDSSSNSAFLTISGLKTEDEADYYCQSYDSSNRVFGCGTKLTVLGGGGSGGGGSGGGGSGGGGSEVQLVESGGGLVKPGGSLRLSCAASGFTFSSYSMNWVRQAPGKCLEWVSSISRSSGYIFYADSVKGRFTISRDNAKNSLYLQMNSLRAEDTAVYYCVRERVGAGFDYWGQGTLVTVSSDKTHTCPPCPAPEFEGGPSVFLFPPKPKDTLMISRTPEVTCVVVDVSHEDPEVKFNWYVDGVEVHNAKTKPREEQYNSTYRVVSVLTVLHQDWLNGKEYKCKVSNKALPASIEKTISKAKGQPREPQVYTLPPCREEMTKNQVSLWCLVKGFYPSDIAVEWESNGQPENNYKTTPPVLDSDGSFFLYSKLTVDKSRWQQGNVFSCSVMHEALHNHYTQKSLSLSPGK
chain 2: EVQLVQSGAEVKKPGSSVKVSCKASGYTITDSNIHWVRQAPGQSLEWIGYIYPYNGGTDYNQKFKNRATLTVDNPTNTAYMELSSLRSEDTAFYYCVNGNPWLAYWGQGTLVTVSSASTKGPSVFPLAPSSKSTSGGTAALGCLVKDYFPEPVTVSWNSGALTSGVHTFPAVLQSSGLYSLSSVVTVPSSSLGTQTYICNVNHKPSNTKVDKRVEPKSCDKTHTCPPCPAPEFEGGPSVFLFPPKPKDTLMISRTPEVTCVVVDVSHEDPEVKFNWYVDGVEVHNAKTKPREEQYNSTYRVVSVLTVLHQDWLNGKEYKCKVSNKALPASIEKTISKAKGQPREPQVCTLPPSREEMTKNQVSLSCAVKGFYPSDIAVEWESNGQPENNYKTTPPVLDSDGSFFLVSKLTVDKSRWQQGNVFSCSVMHEALHNRFTQKSLSLSPGK
chain 3: DIQLTQSPSTLSASVGDRVTITCRASESLDNYGIRFLTWFQQKPGKAPKLLMYAASNQGSGVPSRFSGSGSGTEFTLTISSLQPDDFATYYCQQTKEVPWSFGQGTKVEVKRTVAAPSVFIFPPSDEQLKSGTASVVCLLNNFYPREAKVQWKVDNALQSGNSQESVTEQDSKDSTYSLSSTLTLSKADYEKHKVYACEVTHQGLSSPVTKSFNRGEC
As to B1, the “% Positive” value in test [1] was 95.2%; in test [2], 99.3%. For the same molecule, the gMFI amounted to 27600 gMFI in test [1], 87700 gMFI in test [2], 14600 gMFI in test [4] and 8730 gMFI in test [6]. Further, the figures for the “Jurkat WT/KO (Fold)” value in test [3] and in test [5] were 6.1 fold and 3.7 fold, respectively.

B2: CD3 × CD33-BspAb123 (bispecific antibody)
chain 1: QTVVTQEPSFSVSPGGTVTLTCGLNSGSVSTSYYPSWYQQTPGQTPRTLIYSTNTRSSGVPDRFSGSILGNKAALTITGAQADDESDYYCVLYMGSGIWVFGCGTKLTVLGGGGSGGGGSGGGGSGGGGSQVQLVQSGAEVKKPGASLKVSCKASGYTFTSYYMHWVRQAPGQCLEWMGIINPSNGNTISAQKFQGRVTMTRDTSTSTVYMEMSSLRSEDTAVYYCVRSWGYYVMDVWGQGTTVTVSSDKTHTCPPCPAPEFEGGPSVFLFPPKPKDTLMISRTPEVTCVVVDVSHEDPEVKFNWYVDGVEVHNAKTKPREEQYNSTYRVVSVLTVLHQDWLNGKEYKCKVSNKALPASIEKTISKAKGQPREPQVYTLPPCREEMTKNQVSLWCLVKGFYPSDIAVEWESNGQPENNYKTTPPVLDSDGSFFLYSKLTVDKSRWQQGNVFSCSVMHEALHNHYTQKSLSLSPGK
chain 2: EVQLVQSGAEVKKPGSSVKVSCKASGYTITDSNIHWVRQAPGQSLEWIGYIYPYNGGTDYNQKFKNRATLTVDNPTNTAYMELSSLRSEDTAFYYCVNGNPWLAYWGQGTLVTVSSASTKGPSVFPLAPSSKSTSGGTAALGCLVKDYFPEPVTVSWNSGALTSGVHTFPAVLQSSGLYSLSSVVTVPSSSLGTQTYICNVNHKPSNTKVDKRVEPKSCDKTHTCPPCPAPEFEGGPSVFLFPPKPKDTLMISRTPEVTCVVVDVSHEDPEVKFNWYVDGVEVHNAKTKPREEQYNSTYRVVSVLTVLHQDWLNGKEYKCKVSNKALPASIEKTISKAKGQPREPQVCTLPPSREEMTKNQVSLSCAVKGFYPSDIAVEWESNGQPENNYKTTPPVLDSDGSFFLVSKLTVDKSRWQQGNVFSCSVMHEALHNRFTQKSLSLSPGK
chain 3: DIQLTQSPSTLSASVGDRVTITCRASESLDNYGIRFLTWFQQKPGKAPKLLMYAASNQGSGVPSRFSGSGSGTEFTLTISSLQPDDFATYYCQQTKEVPWSFGQGTKVEVKRTVAAPSVFIFPPSDEQLKSGTASVVCLLNNFYPREAKVQWKVDNALQSGNSQESVTEQDSKDSTYSLSSTLTLSKADYEKHKVYACEVTHQGLSSPVTKSFNRGEC
Consider B2, for which the “% Positive” value amounted to 1.8% in test [1] and 1.4% in test [2]. Besides, the gMFI in test [1] stood at 1860 gMFI; in test [2], 1920 gMFI; in test [4] it was 1710 gMFI; in test [6] it was 1680 gMFI. The “Jurkat WT/KO (Fold)” value came to 0.8 fold in test [3] and 0.9 fold in test [5].

B3: CD3 × CD33-BspAb121 (bispecific antibody)
chain 1: QTVVTQEPSLTVSPGGTVTLTCASSTGAVTSGYYPNWFQQKPGQAPRALIYSTSNKHSWTPARFSGSLLGGKAALTLSGVQPEDEAEYYCLLYYGGAYVFGCGTKVTVLGGGGSGGGGSGGGGSGGGGSEVQLVESGGGLVKPGGSLRLSCAASGFTFSSYSMNWVRQAPGKCLEWVSSISRSGTYIYYADSVKGRFTISRDNAKNSLYLQMNSLRAEDTAVYYCARERWELLYFDYWGQGTLVTVSSDKTHTCPPCPAPEFEGGPSVFLFPPKPKDTLMISRTPEVTCVVVDVSHEDPEVKFNWYVDGVEVHNAKTKPREEQYNSTYRVVSVLTVLHQDWLNGKEYKCKVSNKALPASIEKTISKAKGQPREPQVYTLPPCREEMTKNQVSLWCLVKGFYPSDIAVEWESNGQPENNYKTTPPVLDSDGSFFLYSKLTVDKSRWQQGNVFSCSVMHEALHNHYTQKSLSLSPGK
chain 2: EVQLVQSGAEVKKPGSSVKVSCKASGYTITDSNIHWVRQAPGQSLEWIGYIYPYNGGTDYNQKFKNRATLTVDNPTNTAYMELSSLRSEDTAFYYCVNGNPWLAYWGQGTLVTVSSASTKGPSVFPLAPSSKSTSGGTAALGCLVKDYFPEPVTVSWNSGALTSGVHTFPAVLQSSGLYSLSSVVTVPSSSLGTQTYICNVNHKPSNTKVDKRVEPKSCDKTHTCPPCPAPEFEGGPSVFLFPPKPKDTLMISRTPEVTCVVVDVSHEDPEVKFNWYVDGVEVHNAKTKPREEQYNSTYRVVSVLTVLHQDWLNGKEYKCKVSNKALPASIEKTISKAKGQPREPQVCTLPPSREEMTKNQVSLSCAVKGFYPSDIAVEWESNGQPENNYKTTPPVLDSDGSFFLVSKLTVDKSRWQQGNVFSCSVMHEALHNRFTQKSLSLSPGK
chain 3: DIQLTQSPSTLSASVGDRVTITCRASESLDNYGIRFLTWFQQKPGKAPKLLMYAASNQGSGVPSRFSGSGSGTEFTLTISSLQPDDFATYYCQQTKEVPWSFGQGTKVEVKRTVAAPSVFIFPPSDEQLKSGTASVVCLLNNFYPREAKVQWKVDNALQSGNSQESVTEQDSKDSTYSLSSTLTLSKADYEKHKVYACEVTHQGLSSPVTKSFNRGEC
On to B3, for which the “% Positive” value in test [1] and in test [2] was 1.5% in each case. The gMFI in test [1] was 1920 gMFI; in test [2], 1920 gMFI; in test [4], 2040 gMFI; in test [6], 1920 gMFI. The “Jurkat WT/KO (Fold)” value in test [3] is 1 fold; in test [5], 0.8 fold.

B4: CD3 × CD33-BspAb122 (bispecific antibody)
chain 1: QTVVTQEPSFSVSPGGTVTLTCGLSSGSVSTSYYPSWYQQTPGQAPRTLIYSTNTRSSGVPDRFSGSILGNKAALTITGAQADDESDYYCVLYMGSGIWVFGCGTKLTVLGGGGSGGGGSGGGGSGGGGSEVQLVESGGGLVKPGGSLRLSCAASGFTVSNYSMNWVRQAPGKCLEWVSSISRSSSYIYYADSVKGRFTISRDNAKNSLFLQMNSLRAEDTAVYYCARERWELLYFDYWGQGTLVTVSSDKTHTCPPCPAPEFEGGPSVFLFPPKPKDTLMISRTPEVTCVVVDVSHEDPEVKFNWYVDGVEVHNAKTKPREEQYNSTYRVVSVLTVLHQDWLNGKEYKCKVSNKALPASIEKTISKAKGQPREPQVYTLPPCREEMTKNQVSLWCLVKGFYPSDIAVEWESNGQPENNYKTTPPVLDSDGSFFLYSKLTVDKSRWQQGNVFSCSVMHEALHNHYTQKSLSLSPGK
chain 2: EVQLVQSGAEVKKPGSSVKVSCKASGYTITDSNIHWVRQAPGQSLEWIGYIYPYNGGTDYNQKFKNRATLTVDNPTNTAYMELSSLRSEDTAFYYCVNGNPWLAYWGQGTLVTVSSASTKGPSVFPLAPSSKSTSGGTAALGCLVKDYFPEPVTVSWNSGALTSGVHTFPAVLQSSGLYSLSSVVTVPSSSLGTQTYICNVNHKPSNTKVDKRVEPKSCDKTHTCPPCPAPEFEGGPSVFLFPPKPKDTLMISRTPEVTCVVVDVSHEDPEVKFNWYVDGVEVHNAKTKPREEQYNSTYRVVSVLTVLHQDWLNGKEYKCKVSNKALPASIEKTISKAKGQPREPQVCTLPPSREEMTKNQVSLSCAVKGFYPSDIAVEWESNGQPENNYKTTPPVLDSDGSFFLVSKLTVDKSRWQQGNVFSCSVMHEALHNRFTQKSLSLSPGK
chain 3: DIQLTQSPSTLSASVGDRVTITCRASESLDNYGIRFLTWFQQKPGKAPKLLMYAASNQGSGVPSRFSGSGSGTEFTLTISSLQPDDFATYYCQQTKEVPWSFGQGTKVEVKRTVAAPSVFIFPPSDEQLKSGTASVVCLLNNFYPREAKVQWKVDNALQSGNSQESVTEQDSKDSTYSLSSTLTLSKADYEKHKVYACEVTHQGLSSPVTKSFNRGEC
Regarding B4, the entries for the “% Positive” value in test [1] and in test [2] were 1.9% and 1%, respectively. In addition, the gMFI in test [1] is 2080 gMFI; in test [2] it was 2020 gMFI; in test [4], 1980 gMFI; in test [6] it was 1910 gMFI. Further, the results for the “Jurkat WT/KO (Fold)” value in test [3] and in test [5] were 1 fold and 0.8 fold, respectively.
